{
  "source": "paper PMC2865183",
  "about": "(Nature chemical biology, 2009)",
  "proteins": {"B1": {"name": "VVD-36 M135I:M165I (domain or fragment, UniProt Q9C3Y6 37-186, looked up)", "chain": "HTLYAPGGYDIMGYLIQIMNRPNPQVELGPVDTSCALILCDLKQKDTPIVYASEAFLYMTGYSNAEVLGRNCRFLQSPDGMVKPKSTRKYVDSNTINTIRKAIDRNAEVQVEVVNFKKNGQRFVNFLTIIPVRDETGEYRYSMGFQCETE"}},
  "target": "the molecule itself",
  "assay": "SEC",
  "data": [
    {"protein": "B1", "values": [
      {"measurement": "fold increase in dimer affinity (against VVD-36)", "value": "> 5", "unit": "fold"}
    ]}
  ]
}
